According to patent US20110229461A1 (UCB, published 2011):
Substitutions are numbered along the chain they refer to. Numbers in names are those of the source.

B1: 949 VK1 gL15 gH20b (antibody, V domains shown)
VH: EVQLVQSGAEVKKPGSSVKVSCKASGYTFTTYPIEWVRQAPGQGLEWMGNFHPYNDDTKYNEKFKGRVTITADKSTSTAYMELSSLRSEDTAVYYCARENYGSHGGFVYWGQGTLVTVS
VL: ENVLTQSPFSLSASVGDRVTITCRASSSVISSYLHWYQQKPAKAPKLFIYSTSNLASGVPSRFSGSGSGTDYTLTISSLQPEDFATYYCQQYNSYPLTFGGGTKVEIK
notes: Humanised; also called Transient #5
B2: 949 VK1 gL15 gH8b (antibody, V domains shown)
VH: B1 VH with S25F, V37M, P41H, M48I
VL: B1 VL
notes: Humanised; human kappa constant (Km3); also called Transient #3
B3: 949 VK1 gL15 gH20a (antibody, V domains shown)
VH: B1 VH with S16A, S25F, I70M, A72R, K74T, A79V
VL: B1 VL
notes: Humanised; human kappa constant (Km3); also called Transient #4
B4: 949 VK1 gL15 gH8a (antibody, V domains shown)
VH: B1 VH with S16A, S25F, V37M, P41H, M48I, I70M, A72R, K74T, A79V
VL: B1 VL
notes: Humanised; human kappa constant (Km3); also called Transient #2
B5: 949 VK1 gL9 gH20b (antibody, V domains shown)
VH: B1 VH
VL: B1 VL with S94G
notes: Humanised; human kappa constant (Km3); also called Transient #1
B6: 949 VK1 gL9 gH8a (antibody, V domains shown)
VH: B1 VH with S16A, S25F, V37M, P41H, M48I, I70M, A72R, K74T, A79V
VL: B1 VL with S94G
notes: Humanised; human kappa constant (Km3)
B7: 949 VK1 gL9 gH8b (antibody, V domains shown)
VH: B1 VH with S25F, V37M, P41H, M48I
VL: B1 VL with S94G
notes: as for B6
B8: 949 VK3 gL1 gH1a (antibody, V domains shown)
VH: B1 VH with S16A, S25F, V37M, P41H, M48I, I70M, A72V, S77T, A79V
VL: ENVLTQSPGTLSLSPGERATLSCRASSSVISSYLHWYQQKPGQAPRLWIYSTSNLASGVPDRFSGSGSGTSYTLTISRLEPEDFATYYCQQYNGYPLTFGGGTKVEIK
notes: as for B6
B9: 949 VK1 gL12 gH20a (antibody, V domains shown)
VH: B1 VH with S16A, S25F, I70M, A72R, K74T, A79V
VL: B1 VL with L4M, S94G
notes: as for B6
B10: 949 VK1 gL1 gH1a (antibody, V domains shown)
VH: B1 VH with S16A, S25F, V37M, P41H, M48I, I70M, A72V, S77T, A79V
VL: B1 VL with F48W, S61D, D71S, S94G
notes: Humanised; human kappa constant (Km3); Heavy V regions were cloned into gamma-4P (S241P), gamma-4P delta Lys and gamma-1 delta Lys vectors
B11: 949 VK1 gL12 gH8a (antibody, V domains shown)
VH: B1 VH with S16A, S25F, V37M, P41H, M48I, I70M, A72R, K74T, A79V
VL: B1 VL with L4M, S94G
notes: as for B6
B12: 949 VK1 gL9 gH20a (antibody, V domains shown)
VH: B1 VH with S16A, S25F, I70M, A72R, K74T, A79V
VL: B1 VL with S94G
notes: as for B6
B13: 949 VK1 gL14 gH8a (antibody, V domains shown)
VH: B1 VH with S16A, S25F, V37M, P41H, M48I, I70M, A72R, K74T, A79V
VL: B1 VL with L4M
notes: as for B6
B14: 949 VK1 gL1 gH1b (antibody, V domains shown)
VH: B1 VH with S25F, V37M, P41H, M48I, A72V, S77T, A79V
VL: B1 VL with F48W, S61D, D71S, S94G
notes: as for B6
B15: 949 VK1 gL14 gH8b (antibody, V domains shown)
VH: B1 VH with S25F, V37M, P41H, M48I
VL: B1 VL with L4M
notes: as for B6
B16: 949 VK1 gL12 gH8b (antibody, V domains shown)
VH: B1 VH with S25F, V37M, P41H, M48I
VL: B1 VL with L4M, S94G
notes: as for B6
B17: 949 VK3 gL11 gH1a (antibody, V domains shown)
VH: B1 VH with S16A, S25F, V37M, P41H, M48I, I70M, A72V, S77T, A79V
VL: B8 VL with G94S
notes: as for B6
B18: 949 VK1 gL12 gH20b (antibody, V domains shown)
VH: B1 VH
VL: B1 VL with L4M, S94G
notes: as for B6
B19: 949 VK3 gL1 gH1b (antibody, V domains shown)
VH: B1 VH with S25F, V37M, P41H, M48I, A72V, S77T, A79V
VL: B8 VL
notes: as for B6
B20: 949 VK1 gL11 gH1a (antibody, V domains shown)
VH: B1 VH with S16A, S25F, V37M, P41H, M48I, I70M, A72V, S77T, A79V
VL: B1 VL with F48W, S61D, D71S
notes: as for B6
B21: antibody CA051-00949 (949), parental variable regions, murine IgG1 (antibody, V domains shown)
VH: QVQLQQSGAELVKPGASVKMSCKAFGYTFTTYPIEWMKQNHGKSLEWIGNFHPYNDDTKYNEKFKGKAKLTVEKSSTTVYLELSRLTSDDSAVYYCARENYGSHGGFVYWGQGTLVTVS
VL: ENVLTQSPAIMSASPGEKVTMTCRASSSVISSYLHWYQQKSGASPKLWIYSTSNLASGVPDRFSGSGSGTSYSLTISSVEAEDAATYYCQQYNGYPLTFGAGTKLEIK
notes: also called Clone 19
B22: 949 chimeric (949 variable regions with human IgG4 constant domains) (antibody, V domains shown)
VH: B21 VH
VL: B21 VL
notes: also called original CA949 construct, cLcH

Target: T1, human PD-1 on cells (transfected HEK293 cells; human T cells) (human, UniProt Q15116 25-288)
T1 construct: whole, on cells; HEK293 cells transiently transfected with human PD-1 DNA; also called PD-1 expressing HEK293 cells; PD-1 transfected HEK cells
Assay: flow cytometry on activated human T cells

T1 sequence (Q15116 25-288): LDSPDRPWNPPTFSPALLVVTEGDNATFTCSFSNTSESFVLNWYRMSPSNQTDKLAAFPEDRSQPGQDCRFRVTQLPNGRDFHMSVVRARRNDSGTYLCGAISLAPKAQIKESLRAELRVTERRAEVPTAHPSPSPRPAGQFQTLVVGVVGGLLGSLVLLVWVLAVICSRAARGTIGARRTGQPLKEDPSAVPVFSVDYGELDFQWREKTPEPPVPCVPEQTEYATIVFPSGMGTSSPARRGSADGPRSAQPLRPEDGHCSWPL

Which EC50 does the source give for B1 here?
Its EC50 is 4.1 µg/mL.

How did the EC50 turn out when B2 was run?
Its EC50 is 6.09 µg/mL.

With B3 as the binder, how does the EC50 read?
Its EC50 is 2.89 µg/mL.

For B4, which EC50 is on record?
Its EC50 is 3.15 µg/mL.

How did the EC50 turn out when B5 was run?
The EC50 was 1.14 µg/mL.

Target: T2, human PD-1 (recombinant, titrated in BIAcore) (human, UniProt Q15116 25-170)
T2 construct: extracellular domain; also called recombinant human PD-1 extracellular domain
Assay: SPR BIAcore 3000; antibody captured by anti-human Fc, human PD-1 titrated;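 further: CM5 chip with amine-coupled goat anti-human Fc F(ab′)₂, HBS-EP running buffer at 10 µL/min, blank-surface-subtracted sensorgrams fitted in BIAevaluation 3.2 for kinetic constants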

T2 sequence (Q15116 25-170): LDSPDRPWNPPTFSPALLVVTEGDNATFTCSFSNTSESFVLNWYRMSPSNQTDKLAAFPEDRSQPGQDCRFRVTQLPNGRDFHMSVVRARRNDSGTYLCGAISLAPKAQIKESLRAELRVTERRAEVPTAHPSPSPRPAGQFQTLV

How did the Kd turn out when B6 was run?
Its Kd is 2.35 nM.

For B7, which Kd is on record?
Its Kd is 2.34 nM.

For B8, which Kd is on record?
Its Kd is 4.02 nM.

And the koff?
Its koff is 0.000844 s⁻¹.

And the kon?
The kon was 210000 M⁻¹ s⁻¹.

With B9 as the binder, how does the Kd read?
Its Kd is 3.38 nM.

Which results are given for B10?
Kd: 3.71 nM; koff: 0.000782 s⁻¹; kon: 211000 M⁻¹ s⁻¹

How did the Kd turn out when B11 was run?
The Kd was 2.46 nM.

How did the Kd turn out when B12 was run?
The Kd was 3.17 nM.

B13 was tested. Which Kd did it give?
Its Kd is 4.75 nM.

Which results are given for B14?
Kd: 2.92 nM; koff: 0.000556 s⁻¹; kon: 191000 M⁻¹ s⁻¹

Which Kd does the source give for B15 here?
The Kd was 4.38 nM.

For B16, which Kd is on record?
Its Kd is 2.77 nM.

How did the Kd turn out when B17 was run?
Its Kd is 4.89 nM.

What about the koff of the same binder?
Its koff is 0.00109 s⁻¹.

What about the kon of the same binder?
The kon was 223000 M⁻¹ s⁻¹.

With B18 as the binder, how does the Kd read?
The Kd was 3.8 nM.

How did the Kd turn out when B5 was run?
The Kd was 2.66 nM.

What does the source list for B19?
Kd: 3.14 nM; koff: 0.00065 s⁻¹; kon: 207000 M⁻¹ s⁻¹

For B20, which Kd is on record?
Its Kd is 5.54 nM.

And the koff?
Its koff is 0.00115 s⁻¹.

And the kon?
The kon was 207000 M⁻¹ s⁻¹.

For B21, which Kd is on record?
The Kd was 5.07 nM.

With B22 as the binder, how does the Kd read?
The Kd was 5.98 nM.

Target: T1, human PD-1 on cells (transfected HEK293 …)
Assay: flow cytometry on activated human T cells; unconstrained curve; unconstrained curve

With B22 as the binder, how does the EC50 read?
The EC50 was 1.2 µg/mL.

Target: T1, human PD-1 on cells (transfected HEK293 …)
Assay: flow cytometry on activated human T cells; top of curve constrained; top part of curve constrained to ~45 geo mean

Which EC50 does the source give for B22 here?
Its EC50 is 3.61 µg/mL.
